Source: PMC12628392, “Reengineered Anti-CD4 Cys-diabody Variants for ^89Zr-immunoPET of CD4^+ T Cells in Immunocompetent Mice” (Molecular Imaging and Biology, 2025)

Assays:
recombinant mouse CD4 = target: T1, recombinant mouse CD4 (Mus musculus, strain , UniProt P06332); assay: ELISA; saturation binding curves on immobilized recombinant mouse CD4; half-maximal binding (EC50), apparent affinity; conditions: both partners purified
T1 construct: CD4, mouse, recombinant; the supplementary information may tell source and limits; also called immobilized CD4 antigen; soluble murine CD4

[1] = target: mouse CD4 on splenocytes / CD4+ T cells (mouse (endogenous in splenocytes)) (UniProt P06332)
DFO-GK1.5 FR cDb (rat) = assay: SEC; DFO-conjugated cDbs (inter-chain disulfide broken) compared with unconjugated cDbs; single peaks
DFO-GK1.5 N80D cDb (rat) = assay: as above
[2] = target: mouse CD4 on splenocytes / CD4+ T cells (mouse (endogenous in splenocytes)) (UniProt P06332); remark: listed apart in the source
BSA = target: T2, BSA (Bos taurus, UniProt P02769); assay: ELISA; control: BSA instead of CD4; data not shown; conditions: both partners purified
T2 construct: serum albumin, printed only as BSA; also called control (BSA)
T2 sequence (P02769 25-607): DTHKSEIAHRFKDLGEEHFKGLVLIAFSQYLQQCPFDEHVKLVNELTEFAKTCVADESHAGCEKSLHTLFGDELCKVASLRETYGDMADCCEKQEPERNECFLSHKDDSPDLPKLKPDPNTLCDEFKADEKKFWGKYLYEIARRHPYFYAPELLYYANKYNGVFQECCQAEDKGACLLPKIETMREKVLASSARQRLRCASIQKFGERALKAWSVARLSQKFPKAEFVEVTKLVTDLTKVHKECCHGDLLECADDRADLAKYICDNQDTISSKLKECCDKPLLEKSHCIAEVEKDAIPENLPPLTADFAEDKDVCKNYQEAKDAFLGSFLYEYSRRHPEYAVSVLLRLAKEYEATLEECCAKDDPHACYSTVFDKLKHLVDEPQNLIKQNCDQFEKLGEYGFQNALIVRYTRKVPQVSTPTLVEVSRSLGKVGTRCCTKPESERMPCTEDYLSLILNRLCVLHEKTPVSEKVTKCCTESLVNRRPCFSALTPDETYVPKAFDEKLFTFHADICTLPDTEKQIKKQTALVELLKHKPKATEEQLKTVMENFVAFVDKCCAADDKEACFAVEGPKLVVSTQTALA

Sequence of mouse CD4 on splenocytes / CD4+ T cells (mouse (endogenous in splenocytes)) (P06332 27-457): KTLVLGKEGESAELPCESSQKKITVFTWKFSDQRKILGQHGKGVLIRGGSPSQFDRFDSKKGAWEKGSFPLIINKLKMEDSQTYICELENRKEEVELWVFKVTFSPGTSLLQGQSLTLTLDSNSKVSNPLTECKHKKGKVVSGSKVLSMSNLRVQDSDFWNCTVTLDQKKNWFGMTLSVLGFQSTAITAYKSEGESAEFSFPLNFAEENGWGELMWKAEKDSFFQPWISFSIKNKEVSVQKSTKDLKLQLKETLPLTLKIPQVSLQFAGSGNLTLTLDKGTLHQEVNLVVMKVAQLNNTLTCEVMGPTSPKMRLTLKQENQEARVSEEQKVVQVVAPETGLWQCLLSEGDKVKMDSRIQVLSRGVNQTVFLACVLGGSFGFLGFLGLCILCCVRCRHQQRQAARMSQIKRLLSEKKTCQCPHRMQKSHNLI
T1 sequence (P06332 27-457): as above

binding result (recombinant mouse CD4) | ex vivo biodistribution 22 h p.i. of ^89Zr-GK1.5 FR cDb (2 µg) in C57BL/6J mice: uptake in spleen [1] [%ID/g] | ex vivo biodistribution 22 h p.i. of ^89Zr-GK1.5 FR cDb: uptake in axillary, brachial lymph nodes [1] [%ID/g] | ex vivo biodistribution 22 h p.i. of ^89Zr-GK1.5 FR cDb: uptake in cervical lymph nodes [1] [%ID/g] | ex vivo biodistribution 22 h p.i. of ^89Zr-GK1.5 FR cDb: uptake in inguinal lymph nodes [1] [%ID/g] | stoichiometry N (DFO-GK1.5 FR cDb (rat)) | EC50 (recombinant mouse CD4) [nM] | ex vivo biodistribution 22 h p.i. of ^89Zr-GK1.5 N80D cDb (2 µg) in C57BL/6J mice: uptake in spleen [1] [%ID/g] | ex vivo biodistribution 22 h p.i. of ^89Zr-GK1.5 N80D cDb, blocked by co-injection of 60 µg (3 mg/kg) non-radioactive GK1.5 N80D cDb: uptake in spleen [1] [%ID/g] | ex vivo biodistribution 22 h p.i. of ^89Zr-GK1.5 N80D cDb, blocked by co-injection of non-radioactive GK1.5 N80D cDb: uptake in axillary, brachial lymph nodes [1] [%ID/g] | ex vivo biodistribution 22 h p.i. of ^89Zr-GK1.5 N80D cDb, blocked by co-injection of non-radioactive GK1.5 N80D cDb: uptake in cervical lymph nodes [1] [%ID/g] | ex vivo biodistribution 22 h p.i. of ^89Zr-GK1.5 N80D cDb, blocked by co-injection of non-radioactive GK1.5 N80D cDb: uptake in inguinal lymph nodes [1] [%ID/g] | ex vivo biodistribution 22 h p.i. of ^89Zr-GK1.5 N80D cDb: uptake in axillary, brachial lymph nodes [1] [%ID/g] | ex vivo biodistribution 22 h p.i. of ^89Zr-GK1.5 N80D cDb: uptake in cervical lymph nodes [1] [%ID/g] | ex vivo biodistribution 22 h p.i. of ^89Zr-GK1.5 N80D cDb: uptake in inguinal lymph nodes [1] [%ID/g] | stoichiometry N (DFO-GK1.5 N80D cDb (rat)) | ex vivo biodistribution 22 h p.i. of ^89Zr-GK1.5 N80D cDb, blocked by co-injection of non-radioactive GK1.5 N80D cDb: uptake in spleen (value of the text, differs from Table 2) [2] [%ID/g] | binding result (BSA) | Binder
binds | 20.7 | 10.5 | 16.7 | 13 | 2 | – | – | – | – | – | – | – | – | – | – | – | – | GK1.5 FR cDb (scFv, V domains shown, as the VH of m1: CDRs of GK1.5 on the VH framework of YTS169; five amino acid linker, printed as G4S (VH-G4S-VL-Cys-His); C-terminal cysteine residue for site-specific conjugation, before the His6 tag; cys-diabody: covalent homodimer of the scFv; parent of m1; also called CDR-grafted cys-diabody; glycosylated GK1.5 FR cDb; source: production and purification told in the supplementary information) VH: EVKLQESGGGLVQPGRSLKLSCAASGFNIRRTYMHWVRQAPGKGLEWIGRIDPANGNTIYGEKFKSKFTISRDNAQNTLYLQMSKLGSEDTAIYYCAIGVQYLDYWGQGVMVTVSS VL: DIVLTQSPAMAMSPGERITISCRATESVSTLIHWYQQKPGQQPKLLIYLTSHLDSGVPARFSGSGSGTDFTLTIDPVEANDTATYYCQQTWNDPWTFGGGTKLELK
– | – | – | – | – | – | 3 | 48.5 | 9.7 | 16.6 | 20 | 18.3 | 43.5 | 66.2 | 44.3 | 2 | 8.1 | no binding | GK1.5 N80D cDb (scFv, V domains shown, VH: CDRs of GK1.5 (contact definition) on the VH framework of YTS169; five amino acid linker, printed as G4S (VH-G4S-VL-Cys-His); VL of GK1.5 FR cDb (CDRs of GK1.5 on the VL framework of YTS169) with N80D (L81 in Kabat numbering); C-terminal cysteine residue for site-specific conjugation, before the His6 tag; cys-diabody: covalent homodimer of the scFv (MW 52.2 kDa), inter-chain disulfide between …) VH: EVKLQESGGGLVQPGRSLKLSCAASGFNIRRTYMHWVRQAPGKGLEWIGRIDPANGNTIYGEKFKSKFTISRDNAQNTLYLQMSKLGSEDTAIYYCAIGVQYLDYWGQGVMVTVSS VL: DIVLTQSPAMAMSPGERITISCRATESVSTLIHWYQQKPGQQPKLLIYLTSHLDSGVPARFSGSGSGTDFTLTIDPVEADDTATYYCQQTWNDPWTFGGGTKLELK
– | – | – | – | – | – | 2.25 | – | – | – | – | – | – | – | – | – | – | – | Parental anti-mouse CD4 antibody GK1.5 (rat IgG2b,k) (antibody, V domains shown, VH of hybridoma GK1.5; constant region of rat IgG2b heavy chain; VL of hybridoma GK1.5; constant region of rat kappa light chain; rat IgG2b, kappa; also called GK1.5 IgG; parental full-length GK1.5 IgG; source: bought: BioLegend Cat# 100401; copies: 2 + 2) VH: EVQLQQSGAELGKPGTSVKLSCKVSDYNIRRTYMHWVNQRPGKGLEWIGRIDPANGNTIYGEKFKSKATLTADTSSNTAYMQLSQLKSDDTAFYYCAIGVQYLDYWGQGVMVTVSS VL: DIVLTQSPASLAVSPGERVTISCRATESVSTLIHWFQQRPGQQPKLLIYLTSHLDSGVPARFSGSGSGTDFTLTIDPVEADDTATYYCQQTWNDPWTFGGGTKLELK
